Assay results as given in patent publication CN114891097A (INST MICROBIOLOGY CAS, dated 2022).

Biological target: SARS-CoV-2 RBD-hFc蛋白 (SARS-CoV-2 RBD fused to a human Fc tag) (SARS-CoV-2; human)

B1: S43纳米抗体 (alpaca-derived nanobody S43, with C-terminal 6xHis tag) (VHH)
VHH: QVQLQESGGGLVQPGGSLRLTCAPSGFTLDYYAIGWFRQAPGKEREGVSCISSNNSTYYADSVKGRFTISRDNAKNTVYLQMNSLKPEDTAVYYCAAEPDYSGVYYYTCGWTDFGSWGQGTQVTVSS
Question: With B1 as the binder, how does the Kd read?
Answer: Its Kd is 0.12 nM.
